Biological target: T1, human interleukin 5 receptor encoded by cDNA clone lambda-h5R.27 (human, UniProt Q01344 21-395)
T1 sequence: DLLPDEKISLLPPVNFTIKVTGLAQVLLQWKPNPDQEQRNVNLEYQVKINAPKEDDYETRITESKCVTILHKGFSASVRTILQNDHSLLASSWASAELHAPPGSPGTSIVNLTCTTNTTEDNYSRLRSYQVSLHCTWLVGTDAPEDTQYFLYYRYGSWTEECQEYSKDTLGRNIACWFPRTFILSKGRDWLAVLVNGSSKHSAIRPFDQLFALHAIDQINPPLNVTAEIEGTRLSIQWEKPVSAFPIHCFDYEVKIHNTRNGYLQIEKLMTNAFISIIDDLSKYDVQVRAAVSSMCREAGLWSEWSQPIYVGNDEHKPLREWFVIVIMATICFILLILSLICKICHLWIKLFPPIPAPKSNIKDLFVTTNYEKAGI
Assay: radioligand binding

B1: recombinant murine interleukin 5, 35S-methionine labelled (ligand, mouse, UniProt P04401 21-133, looked up)
chain: MEIPMSTVVKETLTQLSAHRALLTSNETMRLPVPTHKNHQLCIGEIFQGLDILKNQTVRGGTVEMLFQNLSLIKKYIDRQKEKCGEERRRTRQFLDYLQEFLGVMSTEWAMEG
modifications: 35S-methionine labelled
  Kd: 0.25 nM

— publication PMC2119102 (The Journal of Experimental Medicine, 1992)
